The assay concerns the target DC-SIGN ECD immobilised on a streptactin-functionalised SPR surface (human) (UniProt Q9NNX6).

The values below come from patent WO2018134389A1.

Sequence of DC-SIGN ECD immobilised on a streptactin-functionalised SPR surface (human) (Q9NNX6 59-404): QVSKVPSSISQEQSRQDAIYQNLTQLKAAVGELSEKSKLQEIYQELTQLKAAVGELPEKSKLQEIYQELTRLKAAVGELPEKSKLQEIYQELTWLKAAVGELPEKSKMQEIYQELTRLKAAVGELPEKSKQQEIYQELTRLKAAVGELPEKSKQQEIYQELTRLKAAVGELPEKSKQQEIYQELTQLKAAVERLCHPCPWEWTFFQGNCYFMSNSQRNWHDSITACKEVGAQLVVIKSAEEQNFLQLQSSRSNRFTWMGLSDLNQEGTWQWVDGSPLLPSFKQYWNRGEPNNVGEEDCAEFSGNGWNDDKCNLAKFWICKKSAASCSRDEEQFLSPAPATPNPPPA

Regarding “HCMV gB treated with a(2 to 3,6)-neuraminidase (sialic acids removed) (from UniProt P13201 25-907) (ligand)”, the Kd is 0.025 nM.

For orientation: Kd means the equilibrium constant for the complex coming apart.
